Assay results as given in paper PMC3137622.
Residue numbers refer to the chain shown, from its start. Names and notes keep the numbering of the source.

Columns and labels:
[1] = molecular target: monoclonal antibody 7C11 (anti-Bla g 2); test: ELISA dose-response; details: chain shown with the change, read off a plot
[2] = molecular target: monoclonal antibody 7C11 (anti-Bla g 2); test: competition ELISA; details: chain shown with the change, solid phase rBla g 2-N93Q, read off a plot
[3] = allergen concentration 100 ng/ml (read on the curve line), parent: est. 1.8
[4] = competitor concentration 0.1 µg/ml, parent: est. 47
[5] = competitor concentration 1 µg/ml, parent: est. 5
[6] = competitor concentration 100 µg/ml, parent: est. 0
[7] = competitor concentration 10 µg/ml, parent: est. 1

monoclonal antibody 7C11 (anti-Bla g 2), sequence (chain, as listed by the source, chain 2 of 2, other chains not shown): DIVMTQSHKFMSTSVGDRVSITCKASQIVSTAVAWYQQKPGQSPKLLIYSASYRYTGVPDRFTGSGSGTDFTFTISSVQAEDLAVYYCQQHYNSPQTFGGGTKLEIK

B1: recombinant Bla g 2-N93Q D68aA (protein)
chain: VPLYKLVHVFINTQYAGITKIGNQNFLTVFDSTSCNVVVASQECVGGACVCPNLQKYEKLKPKYISAGNVQVKFFDTGSAVGRGIEDSLTISQLTTSQQDIVLADELSQEVCILSADVVVGIAAPGCPNALKGKTVLENFVEENLIAPVFSIHHARFQDGEHFGEIIFGGSDWKYVDGEFTYVPLVGDDSWKFRLDGVKIGDTTVAPAGTQAIIDTSKAIIVGPKAYVNPINEAIGCVVEKTTTRRICKLDCSKIPSLPDVTFVINGRNFNISSQYYIQQNGNLCYSGFQPCGHSDHFFIGDFFVDHYYSEFNWENKTMGFGRSVESV
Work on B1 yielded a response (Absorbance (405 nm)) [1, 3] of 0.48, a response (Absorbance (405 nm)) ([1]; allergen concentration about 4000 ng/ml (highest point of the series; curve at plateau)) of 0.73 and an other: Biotinylated mAb 7C11 bound to Bla g 2 (%) [2, 4] of 98%. The other: Biotinylated mAb 7C11 bound to Bla g 2 (%) [2, 5] was 82% and the other: Biotinylated mAb 7C11 bound to Bla g 2 (%) [2, 6] was 5%.

B2: recombinant Bla g 2-N93Q K65A (protein)
chain: B1 chain with K63A, A67D
B2 gave a response (Absorbance (405 nm)) [1, 3] of 0.3, a response (Absorbance (405 nm)) ([1]; allergen concentration about 4000 ng/ml (highest point of the series)) of 1.2 and an other: Biotinylated mAb 7C11 bound to Bla g 2 (%) [2, 4] of 91%. The other: Biotinylated mAb 7C11 bound to Bla g 2 (%) [2, 5] was 47% and the other: Biotinylated mAb 7C11 bound to Bla g 2 (%) [2, 7] was 11%.

B3: recombinant Bla g 2-N93Q K132A (protein)
chain: B1 chain with A67D, K132A
For B3, the response (Absorbance (405 nm)) ([1]; allergen concentration 100 ng/ml, parent: est. 1.8) was 0.12, the response (Absorbance (405 nm)) ([1]; allergen concentration about 400 ng/ml (highest point of the series), parent: est. 1.8) was 0.15 and the other: Biotinylated mAb 7C11 bound to Bla g 2 (%) [2, 4] was 100%. The other: Biotinylated mAb 7C11 bound to Bla g 2 (%) [2, 5] was 100%, the other: Biotinylated mAb 7C11 bound to Bla g 2 (%) [2, 7] was 99% and the other: Biotinylated mAb 7C11 bound to Bla g 2 (%) [2, 6] was 70%.
